Patent US20240400654A1
Numbering of substitutions follows the chain as printed. Names and notes keep the numbering of the source. Values joined by “and” are separate entries in the source; they are usually repeats but may differ in a detail not shown here. Equal values may be shown once.

B1: KB001 mouse Fab VL N54F (Fab, V domains shown)
VH: EVQLKQSGPGLVAPSQSLSITCTVSGFSLSIYSVHWVRQPPGKGLEWLGMIWGGGSSDYNSALKSRLSISKDNSKSQVFLKMNSLQTDDTAMYYCARNGNFYAMDYWGQGTSVTVSS
VL: QIVLTQSPAIMSASLGERVTMTCTASSSVSSSFLHWYQQKPGSSPQLWIYSTSFLASGVPARFSGSGSGTSYSLTISSMEAEDAATYYCHQYHHSPYIYTFGGGTKLEIK
B2: KB001 mouse Fab VH Y106T (Fab, V domains shown)
VH: B1 VH with Y106T
VL: B1 VL with F54N
B3: KB001 mouse Fab VH S28P (Fab, V domains shown)
VH: B1 VH with S28P
VL: B1 VL with F54N
B4: KB001 mouse Fab VH S30G (Fab, V domains shown)
VH: B1 VH with S30G
VL: B1 VL with F54N
B5: KB001 mouse Fab VL L55S (Fab, V domains shown)
VH: B1 VH
VL: B1 VL with F54N, L55S
B6: KB001 mouse Fab VH S61Q (Fab, V domains shown)
VH: B1 VH with S61Q
VL: B1 VL with F54N
B7: KB001 mouse Fab VH A103S (Fab, V domains shown)
VH: B1 VH with A103S
VL: B1 VL with F54N
B8: KB001 mouse Fab VH G99S (Fab, V domains shown)
VH: B1 VH with G99S
VL: B1 VL with F54N
B9: KB001 mouse Fab VH S30Y (Fab, V domains shown)
VH: B1 VH with S30Y
VL: B1 VL with F54N
B10: KB001 mouse Fab VH N100E (Fab, V domains shown)
VH: B1 VH with N100E
VL: B1 VL with F54N
B11: KB001 mouse Fab VL L55H (Fab, V domains shown)
VH: B1 VH
VL: B1 VL with F54N, L55H
B12: KB001 mouse Fab VH Y59V (Fab, V domains shown)
VH: B1 VH with Y59V
VL: B1 VL with F54N
B13: KB001 mouse Fab VH K64A (Fab, V domains shown)
VH: B1 VH with K64A
VL: B1 VL with F54N
B14: KB001 mouse Fab VH I31V (Fab, V domains shown)
VH: B1 VH with I31V
VL: B1 VL with F54N
B15: KB001 mouse Fab VH S61N (Fab, V domains shown)
VH: B1 VH with S61N
VL: B1 VL with F54N
B16: KB001 mouse Fab VL N54L (Fab, V domains shown)
VH: B1 VH
VL: B1 VL with F54L
B17: KB001 mouse Fab VH Y106L (Fab, V domains shown)
VH: B1 VH with Y106L
VL: B1 VL with F54N
B18: KB001 mouse Fab VH S61D (Fab, V domains shown)
VH: B1 VH with S61D
VL: B1 VL with F54N
B19: KB001 mouse Fab VH S30E (Fab, V domains shown)
VH: B1 VH with S30E
VL: B1 VL with F54N
B20: KB001 mouse Fab VH I31T (Fab, V domains shown)
VH: B1 VH with I31T
VL: B1 VL with F54N
B21: KB001 mouse Fab VH I31M (Fab, V domains shown)
VH: B1 VH with I31M
VL: B1 VL with F54N
B22: KB001 mouse Fab VH S65D (Fab, V domains shown)
VH: B1 VH with S65D
VL: B1 VL with F54N
B23: KB001 mouse Fab VH S65T (Fab, V domains shown)
VH: B1 VH with S65T
VL: B1 VL with F54N
B24: KB001 mouse Fab VH S57Q (Fab, V domains shown)
VH: B1 VH with S57Q
VL: B1 VL with F54N
B25: KB001 mouse Fab VL L55T (Fab, V domains shown)
VH: B1 VH
VL: B1 VL with F54N, L55T
B26: KB001 mouse Fab VH S28E (Fab, V domains shown)
VH: B1 VH with S28E
VL: B1 VL with F54N
B27: KB001 mouse Fab VH S30A (Fab, V domains shown)
VH: B1 VH with S30A
VL: B1 VL with F54N
B28: KB001 mouse Fab VL N54A (Fab, V domains shown)
VH: B1 VH
VL: B1 VL with F54A
B29: KB001 mouse Fab VH S61T (Fab, V domains shown)
VH: B1 VH with S61T
VL: B1 VL with F54N
B30: KB001 mouse Fab VH S56A (Fab, V domains shown)
VH: B1 VH with S56A
VL: B1 VL with F54N
B31: KB001 mouse Fab VL L55K (Fab, V domains shown)
VH: B1 VH
VL: B1 VL with F54N, L55K
B32: KB001 mouse Fab VH V34I (Fab, V domains shown)
VH: B1 VH with V34I
VL: B1 VL with F54N
B33: KB001 mouse Fab VL L55V (Fab, V domains shown)
VH: B1 VH
VL: B1 VL with F54N, L55V
B34: KB001 mouse Fab VH K64R (Fab, V domains shown)
VH: B1 VH with K64R
VL: B1 VL with F54N
B35: KB001 mouse Fab VH G99Y (Fab, V domains shown)
VH: B1 VH with G99Y
VL: B1 VL with F54N
B36: KB001 mouse Fab VH Y106A (Fab, V domains shown)
VH: B1 VH with Y106A
VL: B1 VL with F54N
B37: KB001 mouse Fab VH S65V (Fab, V domains shown)
VH: B1 VH with S65V
VL: B1 VL with F54N
B38: KB001 mouse Fab VH S57A (Fab, V domains shown)
VH: B1 VH with S57A
VL: B1 VL with F54N
B39: KB001 mouse Fab VH S30N (Fab, V domains shown)
VH: B1 VH with S30N
VL: B1 VL with F54N
B40: KB001 mouse Fab VL L55Q (Fab, V domains shown)
VH: B1 VH
VL: B1 VL with F54N, L55Q
B41: KB001 mouse Fab VH S57V (Fab, V domains shown)
VH: B1 VH with S57V
VL: B1 VL with F54N

target: HRgpA-6H (Porphyromonas gingivalis) (UniProt P28784); assay: ELISA, coated HRgpA-6H
Sequence of UniProt P28784 (P28784 228-860 limits assumed): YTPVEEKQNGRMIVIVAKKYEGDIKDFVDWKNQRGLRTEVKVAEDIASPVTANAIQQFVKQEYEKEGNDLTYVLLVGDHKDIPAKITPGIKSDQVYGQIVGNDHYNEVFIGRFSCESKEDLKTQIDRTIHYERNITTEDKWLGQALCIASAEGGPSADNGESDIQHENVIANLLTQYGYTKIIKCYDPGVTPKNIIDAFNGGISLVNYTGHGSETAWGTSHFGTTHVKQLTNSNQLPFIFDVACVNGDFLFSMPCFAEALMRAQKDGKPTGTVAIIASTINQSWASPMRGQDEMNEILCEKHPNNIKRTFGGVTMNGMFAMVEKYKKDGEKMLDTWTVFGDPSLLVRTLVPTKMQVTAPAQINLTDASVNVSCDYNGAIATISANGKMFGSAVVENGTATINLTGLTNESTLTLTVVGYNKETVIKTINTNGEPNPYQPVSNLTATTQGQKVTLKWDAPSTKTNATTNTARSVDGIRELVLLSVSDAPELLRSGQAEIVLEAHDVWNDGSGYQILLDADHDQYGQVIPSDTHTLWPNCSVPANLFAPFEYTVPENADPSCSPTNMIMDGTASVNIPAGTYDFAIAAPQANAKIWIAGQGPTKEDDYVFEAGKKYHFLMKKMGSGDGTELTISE

Binder	OD450 nm	Ratio OD(Variant)/OD(WT)
B1	0.765	0.976
B2	0.827	1.07
B3	0.545 and 0.452 and 0.514	1.01 and 0.837 and 0.952
B4	0.533 and 0.515	1.06 and 1.02
B5	0.672	0.858
B6	0.634	1.28
B7	0.909	1.05
B8	0.809	1.01
B9	0.53 and 0.488	1.05 and 0.967
B10	0.886	1.05
B11	0.695 and 0.731	0.887 and 0.933
B12	0.83 and 0.79	1.05 and 0.999
B13	0.89	1.08
B14	0.537 and 0.521	1.06 and 1.03
B15	0.537	1.09
B16	0.774	0.988
B17	0.791	1.03
B18		1.14 and 1.11 (2×) and 0.956
B19	0.567	1.12
B20	0.56 and 0.534	1.11 and 1.06
B21	0.522	1.03

Binder	OD450 nm	Ratio OD(Variant)/OD(WT)
B22	0.866 and 0.897	1.05 and 1.08
B23	0.883	1.07
B24	0.915 and 0.863 and 0.836	1.04 and 0.981 and 0.951
B25	0.727	0.928
B26	0.561 and 0.551 and 0.494	1.04 and 1.02 and 0.915
B27	0.534 and 0.499 and 0.494	1.06 and 0.989 and 0.979
B28	0.776	0.99
B29	0.543 and 0.447	1.1 and 0.906
B30	0.891 and 0.86 and 0.82	1.01 and 0.978 and 0.932
B31	0.769	0.981
B32	0.891 and 0.868 and 0.866	1.08 and 1.05 (2×)
B33	0.706	0.901
B34	0.87	1.05
B35	0.835	1.05
B36	0.821 and 0.835	1.07 and 1.09
B37	0.867	1.05
B38	0.922	1.05
B39	0.565 and 0.56	1.12 and 1.11
B40	0.711 and 0.692 and 0.684	0.907 and 0.883 and 0.873
B41	0.911 and 0.869	1.04 and 0.988
